Measurements published in PMC7641744.
Read-outs that look alike come from different tables or passages of the source. Blank lines part the entries; values can stand above or below the molecule they belong to.

Key:
[1] = molecular target: Rap_(pLS20)-His(6) (Bacillus subtilis plasmid pLS20); assay: AUC
[2] = molecular target: Rap_(pLS20)-His(6) (Bacillus subtilis plasmid pLS20); assay: AUC; remark: listed apart in the source
[3] = molecular target: Rap_(pLS20)-His(6) (Bacillus subtilis plasmid pLS20); assay: AUC; remark: listed apart in the source
[4] = molecular target: Rco_(pLS20)-His(6) (Bacillus subtilis plasmid pLS20); assay: AUC
[5] = test system: T1, RappLS20-His(6) (Bacillus subtilis plasmid pLS20 (pLS20cat)), ORF:c1c32938; assay: EMSA
T1 sequence: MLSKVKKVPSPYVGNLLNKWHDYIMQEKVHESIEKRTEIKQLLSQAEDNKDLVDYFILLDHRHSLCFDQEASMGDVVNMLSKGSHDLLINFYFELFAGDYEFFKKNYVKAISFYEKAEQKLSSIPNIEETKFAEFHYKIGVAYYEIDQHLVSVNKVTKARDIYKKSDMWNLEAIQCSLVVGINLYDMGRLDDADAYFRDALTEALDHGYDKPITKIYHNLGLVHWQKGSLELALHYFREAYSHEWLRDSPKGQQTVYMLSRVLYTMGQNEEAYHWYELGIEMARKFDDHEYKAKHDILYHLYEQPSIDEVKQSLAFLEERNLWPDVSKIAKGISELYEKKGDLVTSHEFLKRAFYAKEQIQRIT

[6] = test system: T2, RcopLS20-His(6) (Bacillus subtilis plasmid pLS20 (pLS20cat)), ORF:72252162; assay: EMSA
T2 sequence: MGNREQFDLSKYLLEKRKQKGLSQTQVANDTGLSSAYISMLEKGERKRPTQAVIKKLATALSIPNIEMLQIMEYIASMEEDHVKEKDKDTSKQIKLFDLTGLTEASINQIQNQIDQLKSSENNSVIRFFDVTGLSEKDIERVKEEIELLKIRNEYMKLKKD

[7] = test system: T2, RcopLS20-His(6) (Bacillus subtilis plasmid pLS20 (pLS20cat)), ORF:72252162; assay: analytical ultracentrifugation

Molecule: CGCGGATCCTATACCACCTCGCAAAATAAACCCTGTATACGGTCTAGCGCTTACAATTTTTCGCGTTTTTTTTACTCAGTGAAAAAAACCGGTTAAAAATTTCACTGAAATACTTTACAGTTAAAAAAATGTCTGTTATCTTAGTGAAAGAGTCAGTGAAAAAAATGCAGAATAAGGTTTTTTGTTGTTAATCTCAAACAATTTCTGTGTAAAAAGAAC (double strand) [Fragment FIII (219 bp, operator OII)]
binding [5]: no binding | binding [6]: binds | binding [7]: binds

Molecule: Phr*_(pLS20) (peptide)
Kd [3]: 2.1 µM

Molecule: PhrF*-R2K (peptide)
Kd [3]: 4.2 µM

Second part, the molecule after the results:

stoichiometry N [1]: 2 | stoichiometry N [2]: 4 | stoichiometry N [3]: 4
Molecule: Rap_(pLS20)-His(6) (natural protein)

stoichiometry N [4]: 4 | stoichiometry N ([3]; scale: mol of Rco_(pLS20) per mol of Rap_(pLS20)): 2.1
Molecule: Rco_(pLS20)-His(6) (natural protein)

Kd [3]: 4.2 µM
Molecule: PhrF*-I5Y (peptide)

Kd [3]: 5.3 µM
Molecule: QRGMI [PhrF*]
